Molecular target: moth cytochrome c, MCC(99K), wild-type peptide peptide on I-Ek (mouse)
Experiment: C1/2wt: antigen concentration for half-maximal IL-2 with wild-type I-Ek CHO APC

Substance: 2B4
- EC50 of peptide: 25 nM
